This note sets out measurements from the nanobody polyreactivity screen of Harvey et al. (2022).

The nature of the series: yeast display, Sf9 membrane polyspecificity reagent, FACS + sequencing; frameworks hold sequencing errors. A digest of the protocol: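 Polyreactivity labels are assigned by the sorting gate from which each nanobody was recovered. The gates were low and high (top ~1%), set on anti-HA fluorescence for expression and streptavidin fluorescence for reagent binding. Before sorting, galactose-induced (36–48 hours) yeast display cells were stained for 1 hour at 4 °C with 10% biotinylated, detergent-solubilized Sf9 membrane reagent.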
As for “QVQLEESGGAIVQAAGSLRLSCAASGLIFAWYALGWYRPAPGKERELVATISWNGDRTYYADSVKGRFTISRDNAKNTVYLQMNSLKPEDTAVYYCAARFGSGFNYWGKGTQVTVSS”, the “polyreactivity (PSR sort gate)” value is on record as “high polyreactivity”. For “QVQLEESGGALVQAGGSLRLSGAASVSTFAYYAMGWYRQAPGKERELVAAISWSGGSTYYADSVKGRFTISRDNAKNTVYLLMNSLKPEDTAVYYCNKRNVLDYDYWGQGTQVTVSS”, the “polyreactivity (PSR sort gate)” value was “low polyreactivity”. Regarding “QVQLEESGGCLVQAGGSLRLSCAASGFTFYQNAMGWYRQAPGKERELVAAISSGASTYYADSVKGRFTISRDNAKNTVYLQMNSLKPEDTAVYYCAADRYKPSLRWRRPKMNYWGQGTQVTVSS”, the “polyreactivity (PSR sort gate)” value is recorded as “high polyreactivity”. For “QVQLEESGGCLVQAGGSLRLSCAASGRIFGSYTMGWYRQAPGKERELVAAISDSGGSTYYADSVKGRFSISRDNAKNTVYLQMNSLKPEDTAVYYCNADWSWYNYYDFDYWGQGTQVTVSS” the value was “low polyreactivity”. In the case of “QVQLEESGGGFVQAGGSLRLSCAASGFIFSSNAMGWYRQAPGKERELVASISSGGSTNYADSVKGRFTISRDNAKNTVYLQMNSLKPEDTAVYYCAADGISLYATAYDYWGQGTQVTVSS”, the “polyreactivity (PSR sort gate)” value is reported as “low polyreactivity”. As for “QVQLEESGGGIVQAGGSLRLSCAASGRIFYHYAMGGYRKAPGKEREWVAAISGSGGSTYYADSVKGGFTISRYNAKNTVYLQMNSLNPEDTAVFYCSTSGPQYYARNFDYCGQGTQVTVSS”, the entry is “low polyreactivity”; as for “QVQLEESGGGIVQAGGSLRLSCAASGSTFVLYAMGWYRPAPGKERELVAAITSGGSTYYADSVKGRFTISRDNAKNTVYLQMNSLKPEDTAVYYCAASYWDTEPGYREYDYWGQGTQVTVSS”, “low polyreactivity”. Consider “QVQLEESGGGLDQAGGSLRLSCAASGRIFFYNAMGWYRQAPGKERELVAGISRSGTSTYYADSVKGRFTNSRDNAKNTVFLQMNSLKPEDTAVYYCAAAAWSVILWREMDYWGQGTQVTVSS”, for which the “polyreactivity (PSR sort gate)” value is “low polyreactivity”. As to “QVQLEESGGGLDQAGGSLRLSCAASGSTFYKNAMGWYRQAPGKERELVARISGRGGSTDYADSVKGRFTISRDNAKNTVYLQMNSLKPDDTAVYYCNAGKYSSSDALYDYWGQGTQVTVSS”, the “polyreactivity (PSR sort gate)” value is reported as “high polyreactivity”.

As for “QVQLEESGGGLFQAGGSLRLSCAASGRTFPGNAMGWYRQAPGKERELVAAISYSGGRTYYADSVKGRFTISRDNAKNTVYLQMNSLKPEDTAVYYCNAWARLGRYEYWGQGTQVTVSS”, the “polyreactivity (PSR sort gate)” value was “high polyreactivity”.

Turning to “QVQLEESGGGLGQAGGSLRLSCAASGSIFAYYAMGWYRQAPGKERELVAAISWGGGNTYYADSVKGRFTISRDNAKNNVYLQMNSLKPEDTAVYYCAAEDYYYYGVAYGYWGQGSQVTVSS”, the “polyreactivity (PSR sort gate)” value is reported as “high polyreactivity”. In the case of “QVQLEESGGGLVHAGGSLRLSCAASGFTFKYNAMGWYRQAPGKEREFVASISSGSTNYADSVKGRFTISRDNAKNTVYLQMNSLKPEDTAVYYCAASVSRGKRFRYGYVFKMDYWGQGTQVTVSS”, the “polyreactivity (PSR sort gate)” value is given as “low polyreactivity”. As for “QVQLEESGGGLVQAGCSLRLSCADSGITFGGNAMGWYRQAPGKERDLVAAIDEGGGSTYYADTVKGRFTLSRDNAKNTVYLQMHSLKPEPTAVDYCAADFGYYGYYYWGQGTQVTVST”, the entry is “low polyreactivity”. As for “QVQLEESGGGLVQAGGILRLSCAASGSMFVAYTMGWYRQEPGKERELVAAISRGGSTNYADSVKGRFTISRDNAKTTVYLQMNSLKPEDTAVYYCAAKVWDGQLLYYWGQGTQVTVSS”, the entry is “low polyreactivity”; as for “QVQLEESGGGLVQAGGILRLSCAFYYGIGWYRQATGKERELVAAINLGGGSTYYADSVKGLFTISRDNAKNTVYLQMNSLKPEDTAVYYGAADVGSRTYYVKYDYWGQGTEVTVSS”, “low polyreactivity”. Turning to “QVQLEESGGGLVQAGGRLRLSCAASGRIFSRNAMGGSRTATGKERELVAAISSSTGSTYYADSVKGRFTISRDNAKKTVYLQMNSLKPEDTAVYYCAARYWGDYFTEMNYWGQGTQVTVSS”, the “polyreactivity (PSR sort gate)” value is recorded as “high polyreactivity”. For the sequence “QVQLEESGGGLVQAGGSIRLSCAASGSTFYTNAMGWYRQAPGKERELVAAISSSGDSTYYADSVKGRFTISRDTAKNTVYLQMNSLKPEDTAVYYCNADRRSYNGFRYYYWGQGTQVTVSS”, the “polyreactivity (PSR sort gate)” value is given as “low polyreactivity”. As for “QVQLEESGGGLVQAGGSIRLSCAASVSTFVGNAMGWYRKAPGKETEFVATISNSGGRTYYADSVKGRFTISRDNSKNTVYLQMNSLKPEDTAVYFCAADHPAFCPGYSFDYWGQGTQVTVTS”, the entry is “low polyreactivity”. For “QVQLEESGGGLVQAGGSLRFSCAASGRIYRYAMGWYRQAPGKERELVASITYSGGSTYYADSVKGRFTISRDNAKNTVYLQMNSLKPEDTAVYYCAASTRHVHYGYWGQGTQVTVSS” the value was “high polyreactivity”. For “QVQLEESGGGLVQAGGSLRISCAASGRTFNYNAIGWYRQAPGKERELVAAITSGGRTNYADSVKGRFTISRDNAKNTVYLQMNSLKPEDTAVYYCATEYYRYRWVGAFRYPVYYWGQGTQVTVSS” the value was “low polyreactivity”. With “QVQLEESGGGLVQAGGSLRLICAASGCIFEYNAMGWSRQAPRKEREFVAAINNSGGRTYYADSVKGRFTISRDNANNTVYLQMNSLKPEDTAVYYCAVYSYYRRTYRREMDYWGQGTQVTVSS”, the “polyreactivity (PSR sort gate)” value is reported as “high polyreactivity”. On to “QVQLEESGGGLVQAGGSLRLRCAASGRTFGYYAMGWYRQAPGKERQLVASITSGGRTYYADSVKGRFTISRDNSKNTVYLQMNSLKPEDTAVFYCAADRFGIGGKSGNDYWGQGTQVTVSS”, for which the “polyreactivity (PSR sort gate)” value is recorded as “high polyreactivity”. For “QVQLEESGGGLVQAGGSLRLSCAASGCTLTDYAMGWYIQAPGKERELVAAISSVGSTNYADSVKGRFTISRDNAKNTVYLQMNSLKPEDTAVYYCAVDYGRAVQGDSITYDFNYWGQGTQVNVSS”, the “polyreactivity (PSR sort gate)” value is recorded as “low polyreactivity”. As for “QVQLEESGGGLVQAGGSLRLSCAASGFIFPHYTMGWYRQAPGKERELVAAISSSGGSTYYADSVKGRFTISRDNAKKTVYLQMNSLKPEDTAVYYCPGPLPYYGQYDYWGQGTQVTVSS”, the entry is “low polyreactivity”; as for “QVQLEESGGGLVQAGGSLRLSCAASGFIFQYNAMGWYRQAPGKEREFVDAINYSGGNTYYADSVKGRFTISRDTAKNTVYLQMNSLKPEDTAVYYCNVRLWYGRWWYNRYNYWGQGTQVTVSS”, “high polyreactivity”; as for “QVQLEESGGGLVQAGGSLRLSCAASGFIFYQYAMGSYRQAPGKVRELVAAISWNGGRTYYADSVKGRFTISRDNAKNTVYLQMNSLKPEDTAVYYCAAPVLTSDYTLDSYYWGQGTQVTVSS”, “high polyreactivity”. As for “QVQLEESGGGLVQAGGSLRLSCAASGFILEYYAMGWSRQATGKETELVSTISSGGSTNYADSVKGRFTISSDNAKNTVYFQMNRLKPEDTAVFYCAAARYTLSRYYYWGQGTQLTVSS”, the “polyreactivity (PSR sort gate)” value is reported as “high polyreactivity”. As for “QVQLEESGGGLVQAGGSLRLSCAASGFILTGNVMGWYRQAPGKEREFVAGISRSGGTYYADSVKGRFTISRDNAKNTVYLQMNSLKPEDTAVYYCAAKPIYYSRGYYWGQGTQVTVSS”, the entry is “high polyreactivity”; as for “QVQLEESGGGLVQAGGSLRLSCAASGFTFALYAMGWYRPAPRNEMEFVAAISRRGGSTYYADSVKGRFTISRDNAKNTVYLQMNSLKPEDTAVYYCAANYPFGVYHGAPYGYWGQGTQVTVSS”, “high polyreactivity”; as for “QVQLEESGGGLVQAGGSLRLSCAASGFTFAYYAMGWYRQAPGKERELVAGISWRGGRTYYADSVKGRFTISRDNAKNTVYLQMNSLKPEDTAVYYCNARNSYRPGRGYDYGGQGTQVTVSS”, “high polyreactivity”. For “QVQLEESGGGLVQAGGSLRLSCAASGFTFRRYDMGWYRQAPGKERELVATINRGGSTDSADSVKGRFTISRDNAKNTVYLQMNSLKPEDTAVYYCATRYYSSRTWSEYYYWGQGTQVTVSS” the value was “high polyreactivity”. “QVQLEESGGGLVQAGGSLRLSCAASGFTFSHNAMGWYIQAPGKERELVAAITRDSGSTYYADSVKGRFTISRDNAKNTVYLQMNSLTPEDTAVYYCAADIASGYYWYDYWGQGTQVTVSS”: the “polyreactivity (PSR sort gate)” value is listed as “low polyreactivity”. For “QVQLEESGGGLVQAGGSLRLSCAASGFTFWRYGMGWYRQAPRKERELVASITSGGGTNYADSVKGRFTISRDNAKNTVYIQMNSLKPEDTAVYYCNAVFFYHGTKPAFISHDYWGQGTQVTVSS” the value was “low polyreactivity”; for “QVQLEESGGGLVQAGGSLRLSCAASGGIFLGYAMGWYRQAPGTERELVAAISDSGGSTDYADSVKGRFTISRDHAKTTVYLQTHSLKPDDTAVYYCAAERRSTAGWLYDYWGQGTQVTVSS”, “high polyreactivity”. As for “QVQLEESGGGLVQAGGSLRLSCAASGGTFAQYVMGWYRQAPGKERELVAAISRTGGRTYYADSVKGRFTISRDNAKNTVYLQMNSLKPEDTAVYYCARVYTSYGTPWTNYDYWGQGTQVTVSS”, the entry is “high polyreactivity”; as for “QVQLEESGGGLVQAGGSLRLSCAASGGTFYAYAMGWYRQAPGKERELVAAITRSGGRTYYADSVKGRFTISRDNAKNTVYLQMNSLKPEDTAVYYCAADPHHYSGLDYWGQGTQVTVSS”, “low polyreactivity”. For “QVQLEESGGGLVQAGGSLRLSCAASGIIFGRYTMGWYREAPGKERELVAAITSSGITYYADSVKGRFTISRDNAKNTVYLQMNSLKPEDTAVYYCAADSPVSVTADDGYWGQGTQVTVSS” the value was “low polyreactivity”; for “QVQLEESGGGLVQAGGSLRLSCAASGIIFQRNDMGLYRQAPGKERELVANIRDGGITYADSVKGRFTISRDNAKNTVYLQMNSLKPEDTAVYYCARDDTSPGYCDQSSNAAYYYWGQGTQVTVSS”, “low polyreactivity”. As for “QVQLEESGGGLVQAGGSLRLSCAASGIIFWYYAMGWSRQAPGKERELVAAINSGDSTNYADSVKGRYTISRDNAKNTVYLQMNSLKPEDTAVYYCATVSSYTGGYWGQGTQVTVSS”, the “polyreactivity (PSR sort gate)” value was “low polyreactivity”. As for “QVQLEESGGGLVQAGGSLRLSCAASGITFERYVMGWYRQAPGKERELVASISRSGSTYYADSVKGRFTISRDNAKNTVYLQMNSLKPEDTAVYYCNADRFWFHWVYSRYHYDYWGQGTQVTVSS”, the entry is “high polyreactivity”; as for “QVQLEESGGGLVQAGGSLRLSCAASGITFFHYAMGWSRPAPGKERELVAAITWRGSSTYYADSVKGRFTMSRDNAKNTVYLQMNSLKPEDTAVYYCNAEVGYYEYDYWGQGTQVTVSS”, “high polyreactivity”.
